Measurements as given in patent publication US20230406936A1 (IMMUNOURCHIN, published 2023).
Each block holds one binder with its values, some of them ahead of it.

Legend:
[1] = target: T1, native form of secretory sPD-L1-3, in culture supernatant of transfected MC38 cells (human, UniProt Q9NZQ7 19-178); test: indirect (sandwich) ELISA: antibody coated, MC38 culture supernatant with sPD-L1-3
T1 construct: Untagged, secreted by MC38 cells; also called sPD-L1-3/12

[2] = target: T2, pan IgC segment of human PD-L1, expressed on MC38 / CHO-K1 cells (human, UniProt Q9NZQ7 132-238); test: flow cytometry on cells expressing pan IgC
T2 construct: also called PD-L1-pan-IgC; hPD-L1 pan-IgC segment
Description: (§1) MC38/CHO-K1 cells expressing either PD-L1 or pan IgC were used as positive detection cells. MC38/CHO-K1 wild type cells and PD-L2-expressed MC38/CHO-K1 cells were used as negative control. About 1×10⁵ negative and positive cells were stained with either sera from immunized mice (1:100, 1:1000, 1:10000 dilutions) or culture supernatant (50 μl) from hybridoma, or mouse monoclonal antibody (concentrations as indicated in the figures), or other humanized antibodies (concentrations as indicated in the figures), and incubated at 4° C. for 15 min. After washed with PBS, the cells were stained with a PE conjugated goat anti mouse IgG (BD biosciences) and incubated in dark place at 4° C. for 15 min. After washed with PBS, the stained cells were analyzed by a flow cytometry (NovoCyte, Acebio, Hangzhou).
(§2) MC38 cells expressing either hPD-L1 or pan-IgC were used as positive detection cells, whereas, both hPD-L2 expressed and parental MC38 cells were used as negative detection cells.
(§3) 50 μl/well of hybridoma culture supernatant or 100 ng/well mouse monoclonal antibody were mixed with 1×10 5 of either positive or negative detection cells at 4° C. for 15 min. After washed with PBS, the cells were stained with a PE conjugated goat anti mouse antibody (BD biosciences) at 4° C. for 15 min in dark place.

[3] = target: T3, human PD-L1 (membrane-bound type), expressed on MC38 / CHO-K1 cells (human, UniProt Q9NZQ7 19-290); test: flow cytometry on MC38 cells expressing hPD-L1
T3 construct: Full-length gene transfected into MC38 and CHO-K1 cells; also called hPD-L1
Description: as §1, §2, §3

[4] = target: T4, recombinant PD-L1-3-HIS (secretory splice variant PD-L1-3 with HIS tag, from HEK293 cells) (human, UniProt Q9NZQ7 19-178); test: direct ELISA, 50 ng/well rPD-L1-3-HIS coated
T4 construct: The range 19-178 comes from the background paragraph; also called rPD-L1-3-HIS; sPD-L1-3-HIS; not shown: HIS tag

[5] = target: T5, human PD-L2 (membrane-bound type), expressed on CHO-K1 cells (human, UniProt Q9BQ51 20-273); test: flow cytometry on cells with membrane-bound human PD-L2
T5 construct: whole, on cells; also called hPD-L2
T5 sequence (looked up): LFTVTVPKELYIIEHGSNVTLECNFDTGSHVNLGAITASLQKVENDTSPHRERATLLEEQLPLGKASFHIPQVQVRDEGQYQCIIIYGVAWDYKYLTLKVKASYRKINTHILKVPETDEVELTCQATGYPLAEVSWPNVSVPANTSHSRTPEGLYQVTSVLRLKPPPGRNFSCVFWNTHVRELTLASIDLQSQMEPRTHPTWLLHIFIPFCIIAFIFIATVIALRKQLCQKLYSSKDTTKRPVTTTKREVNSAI

[6] = target: T6, human CD80 (membrane-bound type), on cells (human, UniProt P33681 35-288); test: flow cytometry on cells with membrane-bound human CD80
T6 construct: whole, on cells
T6 sequence (looked up): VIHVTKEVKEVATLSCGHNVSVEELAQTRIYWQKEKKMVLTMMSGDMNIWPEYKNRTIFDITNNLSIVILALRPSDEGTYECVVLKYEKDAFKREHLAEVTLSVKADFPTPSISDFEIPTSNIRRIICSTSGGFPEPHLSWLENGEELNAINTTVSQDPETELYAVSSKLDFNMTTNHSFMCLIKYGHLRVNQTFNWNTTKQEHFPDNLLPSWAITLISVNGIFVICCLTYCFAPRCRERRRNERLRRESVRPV
Source text: FIG. 10. […] C. CHO-K1 parental cells were used as a negative control. Clone #2D10: human CD80 mouse monoclonal antibody (Elabscience, Wuhan). 2nd antibody: PE labeled goat anti-mouse antibody (BD Biosciences)
as §1

[7] = target: T2, pan IgC segment of human PD-L1, …; test: flow cytometry on cells with pan-IgC
[8] = target: T5, human PD-L2 (membrane-bound type), …; test: flow cytometry on cells with membrane-bound human PD-L2; the antibody also bound the CHO-K1 parental cells
[9] = target: T3, human PD-L1 (membrane-bound type), …; test: flow cytometry on cells with membrane-bound PD-L1
[10] = target: T1, native form of secretory sPD-L1-3, in …; test: ELISA with MC38 culture supernatant containing native sPD-L1-3

T2 sequence (Q9NZQ7 132-238): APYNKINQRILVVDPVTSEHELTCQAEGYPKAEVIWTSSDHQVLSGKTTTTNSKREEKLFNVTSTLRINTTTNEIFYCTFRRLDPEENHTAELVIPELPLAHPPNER
T1 sequence (Q9NZQ7 19-178): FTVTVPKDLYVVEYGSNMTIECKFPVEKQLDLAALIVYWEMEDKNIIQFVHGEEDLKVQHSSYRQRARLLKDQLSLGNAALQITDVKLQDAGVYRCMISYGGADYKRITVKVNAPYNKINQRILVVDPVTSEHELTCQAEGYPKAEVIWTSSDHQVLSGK
T3 sequence (Q9NZQ7 19-290): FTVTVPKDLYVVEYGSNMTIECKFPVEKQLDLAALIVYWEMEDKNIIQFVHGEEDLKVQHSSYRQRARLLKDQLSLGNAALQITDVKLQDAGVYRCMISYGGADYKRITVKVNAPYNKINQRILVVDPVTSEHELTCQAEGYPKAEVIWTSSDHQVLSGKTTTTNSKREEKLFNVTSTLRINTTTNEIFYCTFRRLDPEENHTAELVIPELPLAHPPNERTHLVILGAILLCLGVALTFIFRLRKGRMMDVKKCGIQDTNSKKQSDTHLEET
T4 sequence (Q9NZQ7 19-178, change not shown): as the sequence (Q9NZQ7 19-178) above

B2: humanized PD-L1 antibody H6L5 (VH6 + VL5) (antibody, V domains shown)
VH: EVQLQQSGAEVKKPGSSVKVSCKASGSAFSSSWMNWLKQRPGQGLEWIGRIYPGDGDTNYNGKFKGRVTLTADKSSSTAYMQLSSLRSEDTAVYFCARRRANHYGSNWYFDVWGAGTTVTVSS
VL: NIVLTQSPASLSASVGDRVTISCRASESVDSYGKSFMHWYQQKPGQPPKLLIYLASNLESGVPARFSGSGSRTDFTLTIDSLQPEDFATYYCQQNNEDPYTFGGGTKLEIK
- binding result [5]: no binding
- binding result [6]: no binding
- binding result [7]: binds

B3: humanized PD-L1 antibody H5L4 (VH5 + VL4) (antibody, V domains shown)
VH: EVQLVQSGAEVKKPGASVKVSCKASGSAFSSSWMNWLRQRPGQGLEWIGRIYPGDGDTNYNGKFKGRVTLTADKSISTAYMELSRLRSVDTAVYFCARRRANHYGSNWYFDVWGAGTTVTVSS
VL: NIVLTQSPASLSASVGDRVTISCRASESVDSYGKSFMHWYQQKPGQPPKLLIYLASNLESGVPARFSGSGSRTDFTLTISSLQPEDFATYYCQQNNEDPYTFGGGTKLEIK
- binding result [8]: binds

B4: humanized PD-L1 antibody H4L4 (VH4 + VL4) (antibody, V domains shown)
VH: EVQLVQSGAEVKKPGSSVKVSCKASGSAFSSSWMNWLRQRPGQGLEWIGRIYPGDGDTNYNGKFKGRVTLTADKSSSTAYMELSSLRSVDTAVYFCARRRANHYGSNWYFDVWGAGTTVTVSS
VL: NIVLTQSPASLSASVGDRVTISCRASESVDSYGKSFMHWYQQKPGQPPKLLIYLASNLESGVPARFSGSGSRTDFTLTISSLQPEDFATYYCQQNNEDPYTFGGGTKLEIK
- binding result [7]: binds

Further lines, with some results ahead:

- binding result [2]: binds
- binding result [3]: binds
- binding result [4]: no binding (tested: 100 ng/100 µl/well)
B1: PD-L1 mouse monoclonal antibody #19 (antibody, mouse IgG2b, V domains shown)
VH: EVQLQQSGPELVKPGASVKISCKASGSAFSSSWMNWLKQRPGQGLEWIGRIYPGDGDTNYNGKFKGKATLTADKSSSTAYMQLSSLTSVDSAVYFCARRRANHYGSNWYFDVWGAGTTVTVSS
VL: NIVLTQSPASLAVSLGQRATISCRASESVDSYGKSFMHWYQQKPGQPPKLLIYLASNLESGVPARFSGSGSRTDFTLTIDPVEADDAATYYCQQNNEDPYTFGGGTKLEIK
notes: also called mAb #19; Ab #19
- binding result [1]: no binding (tested: 0.2 µg/well coated antibody)

- binding result [5]: no binding
- EC50 [9]: 0.62 µg/mL
- binding result [6]: no binding
- binding result [10]: no binding
B5: humanized PD-L1 antibody H6L2 (humanized mouse monoclonal antibody #19, VH6 + VL2) (antibody, V domains shown)
VH: EVQLQQSGAEVKKPGSSVKVSCKASGSAFSSSWMNWLKQRPGQGLEWIGRIYPGDGDTNYNGKFKGRVTLTADKSSSTAYMQLSSLRSEDTAVYFCARRRANHYGSNWYFDVWGAGTTVTVSS
VL: NIVLTQSPSSLSASVGDRVTITCRASESVDSYGKSFMHWYQQKPGQPPKLLIYLASNLESGVPSRFSGSGSRTDFTLTISSLQPEDFATYYCQQNNEDPYTFGGGTKLEIK
notes: also called humanized antibody H6L2; humanized antibody #19
